The values below come from US20090099029A1, “Methods and substrates for conducting assays” (Invitrogen Corporation, priority 2005, published 2009).

For the data set, the system named is kinases of Table 6 on Myelin Basic Protein (MBP). Description: Kinase assay using MBP substrate, ProQ Diamond stain (Table 6). Particulars: kinase printed on MBP-coated slide; 20 uM ATP, 30° C.; ProQ Diamond Microarray Stain; graded Strong/Weak/Negative. It is filed as biochemical. The procedure, abridged: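 Reactions ran at 30° C. with 20 uM ATP, 4 mM MgCl2 and 5% DMSO in HEPES pH 7.5, inhibitor added or omitted. Kinases had been arrayed onto slide-bound dephosphorylated bovine MBP; phospho-signal read after ProQ Diamond staining.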

Substitutions are numbered along the chain they refer to.

B1: BTK (protein)
chain: MAAVILESIFLKRSQQKKKTSPLNFKKRLFLLTVHKLSYYEYDFERGRRGSKKGSIDVEKITCVETVVPEKNPPPERQIPRRGEESSEMEQISIIERFPYPFQVVYDEGPLYVFSPTEELRKRWIHQLKNVIRYNSDLVQKYHPCFWIDGQYLCCSQTAKNAMGCQILENRNGSLKPGSSHRKTKKPLPPTPEEDQILKKPLPPEPAAAPVSTSELKKVVALYDYMPMNANDLQLRKGDEYFILEESNLPWWRARDKNGQEGYIPSNYVTEAEDSIEMYEWYSKHMTRSQAEQLLKQEGKEGGFIVRDSSKAGKYTVSVFAKSTGDPQGVIRHYVVCSTPQSQYYLAEKHLFSTIPELINYHQHNSAGLISRLKYPVSQQNKNAPSTAGLGYGSWEIDPKDLTFLKELGTGQFGVVKYGKWRGQYDVAIKMIKEGSMSEDEFIEEAKVMMNLSHEKLVQLYGVCTKQRPIFIITEYMANGCLLNYLREMRHRFQTQQLLEMCKDVCEAMEYLESKQFLHRDLAARNCLVNDQGVVKVSDFGLSRYVLDDEYTSSVGSKFPVRWSPPEVLMYSKFSSKSDIWAFGVLMWEIYSLGKMPYERFTNSETAEHIAQGLRLYRPHLASEKVYTIMYSCWHEKADERPTFKILLSNILDVMDEES
modifications: left off: small tags and cut ends
With B1, the “MBP Kinase Activity” value is on record as “Strong”.

B2: ROS1 (protein)
chain: HRRLKNQKSAKEGVTVLINEDKELAELRGLAAGVGLANACYAIHTLPTQEEIENLPAFPREKLTLRLLLGSGAFGEVYEGTAVDILGVGSGEIKVAVKTLKKGSTDQEKIEFLKEAHLMSKFNHPNILKQLGVCLLNEPQYIILELMEGGDLLTYLRKARMATFYGPLLTLVDLVDLCVDISKGCVYLERMHFIHRDLAARNCLVSVKDYTSPRIVKIGDFGLARDIYKNDYYRKRGEGLLPVRWMAPESLMDGIFTTQSDVWSFGILIWEILTLGHQPYPAHSNLDVLNYVQTGGRLEPPRNCPDDLWNLMTQCWAQEPDQRPTFHRIQDQLQLFRNFFLNSIYKSRDEANNSGVINESFEGEDGDVICLNSDDIMPVALMETKNREGLNYMVLATECGQGEEKSEGPLGSQESESCGLRKEEKEPHADKDFCQEKQVAYCPSGKPEGLNYACLTHSGYGDGSD
modifications: left off: a dimerising Fc or GST
Regarding B2, the “MBP Kinase Activity” value is recorded as “Strong”.

B3: RET (protein)
chain: HCYHKFAHKPPISSAEMTFRRPAQAFPVSYSSSGARRPSLDSMENQVSVDAFKILEDPKWEFPRKNLVLGKTLGEGEFGKVVKATAFHLKGRAGYTTVAVKMLKENASPSELRDLLSEFNVLKQVNHPHVIKLYGACSQDGPLLLIVEYAKYGSLRGFLRESRKVGPGYLGSGGSRNSSSLDHPDERALTMGDLISFAWQISQGMQYLAEMKLVHRDLAARNILVAEGRKMKISDFGLSRDVYEEDSYVKRSQGRIPVKWMAIESLFDHIYTTQSDVWSFGVLLWEIVTLGGNPYPGIPPERLFNLLKTGHRMERPDNCSEEMYRLMLQCWKQEPDKRPVFADISKDLEKMMVKRRDYLDLAASTPSDSLIYDDGLSEEETPLVDCNNAPLPRALPSTWIENKLYGMSDPNWPGESPVPLTRADGTNTGFPRYPNDSVYANWMLSPSAAKLMDTFDS
modifications: left off: a dimerising Fc or GST
Turning to B3, the “MBP Kinase Activity” value is “Strong”.

B4: PDGFRB (protein)
chain: MLWQKKPRYEIRWKVIESVSSDGHEYIYVDPMQLPYDSTWELPRDQLVLGRTLGSGAFGQVVEATAHGLSHSQATMKVAVKMLKSTARSSEKQALMSELKIMSHLGPHLNVVNLLGACTKGGPIYIITEYCRYGDLVDYLHRNKHTFLQHHSDKRRPPSAELYSNALPVGLPLPSHVSLTGESDGGYMDMSKDESVDYVPMLDMKGDVKYADIESSNYMAPYDNYVPSAPERTCRATLINESPVLSYMDLVGFSYQVANGMEFLASKNCVHRDLAARNVLICEGKLVKICDFGLARDIMRDSNYISKGSTFLPLKWMAPESIFNSLYTTLSDVWSFGILLWEIFTLGGTPYPELPMNEQFYNAIKRGYRMAQPAHASDEIYEIMQKCWEEKFEIRPPFSQLVLLLERLLGEGYKKKYQQVDEEFLRSDHPAILRSQARLPGFHGLRSPLDTSSVLYTAVQPNEGDNDYIIPLPDPKPEVADEGPLEGSPSLASSTLNEVNTSSTISCDSPLEPQDEPEPEPQLELQVEPEPELEQLPDSGCPAPRAEAEDSFL
modifications: left off: small tags and cut ends
On to B4, for which the “MBP Kinase Activity” value is recorded as “Strong”.

B5: TYRO3 (protein)
chain: LRKRRKETRFGQAFDSVMARGEPAVHFRAARSFNRERPERIEATLDSLGISDELKEKLEDVLIPEQQFTLGRMLGKGEFGSVREAQLKQEDGSFVKVAVKMLKADIIASSDIEEFLREAACMKEFDHPHVAKLVGVSLRSRAKGRLPIPMVILPFMKHGDLHAFLLASRIGENPFNLPLQTLIRFMVDIACGMEYLSSRNFIHRDLAARNCMLAEDMTVCVADFGLSRKIYSGDYYRQGCASKLPVKWLALESLADNLYTVQSDVWAFGVTMWEIMTRGQTPYAGIENAEIYNYLIGGNRLKQPPECMEDVYDLMYQCWSADPKQRPSFTCLRMELENILGQLSVLSASQDPLYINIERAEEPTAGGSLELPGRDQPYSGAGDGSGMGAVGGTPSDCRYILTPGGLAEQPGQAEHQPESPLNETQRLLLLQQGLLPHSSC
modifications: left off: a dimerising Fc or GST
With B5, the “MBP Kinase Activity” value was “Strong”.

B6: PDGFRA (protein)
chain: KQKPRYEIRWRVIESISPDGHEYIYVDPMQLPYDSRWEFPRDGLVLGRVLGSGAFGKVVEGTAYGLSRSQPVMKVAVKMLKPTARSSEKQALMSELKIMTHLGPHLNIVNLLGACTKSGPIYIITEYCFYGDLVNYLHKNRDSFLSHHPEKPKKELDIFGLNPADESTRSYVILSFENNGDYMDMKQADTTQYVPMLERKEVSKYSDIQRSLYDRPASYKKKSMLDSEVKNLLSDDNSEGLTLLDLLSFTYQVARGMEFLASKNCVHRDLAARNVLLAQGKIVKICDFGLARDIMHDSNYVSKGSTFLPVKWMAPESIFDNLYTTLSDVWSYGILLWEIFSLGGTPYPGMMVDSTFYNKIKSGYRMAKPDHATSEVYEIMVKCWNSEPEKRPSFYHLSEIVENLLPGQYKKSYEKIHLDFLKSDHPAVARMRVDSDNAYIGVTYKNEEDKLKDWEGGLDEQRLSADSGYIIPLPDIDPVPEEEDLGKRNRHSSQTSEESAIETGSSSSTFIKREDETIEDIDMMDDIGIDSSDLVEDSFL
modifications: left off: a dimerising Fc or GST
In the case of B6, the “MBP Kinase Activity” value is reported as “Strong”.

B7: PDGFRA, T674I (protein)
chain: B6 chain with T125I
modifications: left off: a dimerising Fc or GST
Take B7: the “MBP Kinase Activity” value was “Negative”.

B8: BMX (protein)
chain: MDTKSILEELLLKRSQQKKKMSPNNYKERLFVLTKTNLSYYEYDKMKRGSRKGSIEIKKIRCVEKVNLEEQTPVERQYPFQIVYKDGLLYVYASNEESRSQWLKALQKEIRGNPHLLVKYHSGFFVDGKFLCCQQSCKAAPGCTLWEAYANLHTAVNEEKHRVPTFPDRVLKIPRAVPVLKMDAPSSSTTLAQYDNESKKNYGSQPPSSSTSLAQYDSNSKKIYGSQPNFNMQYIPREDFPDWWQVRKLKSSSSSEDVASSNQKERNVNHTTSKISWEFPESSSSEEEENLDDYDWFAGNISRSQSEQLLRQKGKEGAFMVRNSSQVGMYTVSLFSKAVNDKKGTVKHYHVHTNAENKLYLAENYCFDSIPKLIHYHQHNSAGMITRLRHPVSTKANKVPDSVSLGNGIWELKREEITLLKELGSGQFGVVQLGKWKGQYDVAVKMIKEGSMSEDEFFQEAQTMMKLSHPKLVKFYGVCSKEYPIYIVTEYISNGCLLNYLRSHGKGLEPSQLLEMCYDVCEGMAFLESHQFIHRDLAARNCLVDRDLCVKVSDFGMTRYVLDDQYVSSVGTKFPVKWSAPEVFHYFKYSSKSDVWAFGILMWEVFSLGKQPYDLYDNSQVVLKVSQGHRLYRPHLASDTIYQIMYSCWHELPEKRPTFQQLLSSIEPLREKDKH
modifications: left off: small tags and cut ends
In the case of B8, the “MBP Kinase Activity” value is “Strong”.

B9: ABL2(ARG) (protein)
chain: MGQQVGRVGEAPGLQQPQPRGIRGSSAARPSGRRRDPAGRTTETGFNIFTQHDHFASCVEDGFEGDKTGGSSPEALHRPYGCDVEPQALNEAIRWSSKENLLGATESDPNLFVALYDFVASGDNTLSITKGEKLRVLGYNQNGEWSEVRSKNGQGWVPSNYITPVNSLEKHSWYHGPVSRSAAEYLLSSLINGSFLVRESESSPGQLSISLRYEGRVYHYRINTTADGKVYVTAESRFSTLAELVHHHSTVADGLVTTLHYPAPKCNKPTVYGVSPIHDKWEMERTDITMKHKLGGGQYGEVYVGVWKKYSLTVAVKTLKEDTMEVEEFLKEAAVMKEIKHPNLVQLLGVCTLEPPFYIVTEYMPYGNLLDYLRECNREEVTAVVLLYMATQISSAMEYLEKKNFIHRDLAARNCLVGENHVVKVADFGLSRLMTGDTYTAHAGAKFPIKWTAPESLAYNTFSIKSDVWAFGVLLWEIATYGMSPYPGIDLSQVYDLLEKGYRMEQPEGCPPKVYELMRACWKWSPADRPSFAETHQAFETMFHDSSISEEVAEELGRAASSSSVVPYLPRLPILPSKTRTLKKQVENKENIEGAQDATENSASSLAPGFIRGAQASSGSPALPRKQRDKSPSSLLEDAKETCFTRDRKGGFFSSFMKKRNAPTPPKRSSSFREMENQPHKKYELTGNFSSVASLQHADGFSFTPAQQEANLVPPKCYGGSFAQRNLCNDDGGGGGGSGTAGGGWSGITGFFTPRLIKKTLGLRAGKPTASDDTSKPFPRSNSTSSMSSGLPEQDRMAMTLPRNCQRSKLQLERTVSTSSQPEENVDRANDMLPKKSEESAAPSRERPKAKLLPRGATALPLRTPSGDLAITEKDPPGVGVAGVAAAPKGKEKNGGARLGMAGVPEDGEQPGWPSPAKAAPVLPTTHNHKVPVLISPTLKHTPADVQLIGTDSQGNKFKLLSEHQVTSSGDKDRPRRVKPKCAPPPPPVMRLLQHPSICSDPTEEPTALTAGQSTSETQEGGKKAALGAVPISGKAGRPVMPPPQVPLPTSSISPAKMANGTAGTKVALRKTKQAAEKISADKISKEALLECADLLSSALTEPVPNSQLVDTGHQLLDYCSGYVDCIPQTRNKFAFREAVSKLELSLQELQVSSAAAGVPGTNPVLNNLLSCVQEISDVVQR
modifications: left off: small tags and cut ends
B9: the “MBP Kinase Activity” value is “Weak”.
